{
  "source": "patent US20060051832A1",
  "about": "“Modified sarcosine oxidase, process for producing the same and reagent composition using the same” (Toyo Boseki Kabushiki Kaisha, priority 2002, published 2006)",
  "assay_type_in_all_cases": "biochemical, Arthrobacter sp. TE1826",
  "key": {"[1]": {"substrate": "CNCC(=O)O", "assay": "Km of modified sarcosine oxidase SAOM5B", "settings": "other: SAOM5B, 37° C., pH 8.0", "protocol": "(§1) • 100 mM Tris-HCl buffer (pH 8.0) (containing 200 mM sarcosine and 0.1% Triton X-100) • 0.1% 4-aminoantipyrine • 0.1% phenol • 25 U/mL peroxidase <Measurement Condition>\n(§2) A reaction mixture is prepared by mixing the above Tris-HCl buffer, 4-aminoantipyrine solution, phenol solution and peroxidase solution at a ratio of 5:1:2:2. The reaction mixture (1 mL) is taken to a test tube, preliminarily warmed at 37° C. for about 5 min, and 0.05 mL of an enzyme solution is added to start the reaction. The reaction at 37° C. is performed accurately for 10 min, then 2.0 mL of an aqueous solution of 0.25% SDS is added to stop the reaction, and an absorbance at 500 nm of this solution is measured. In a blind test, distilled water instead of the enzyme solution is added to the reagent mixture, and the same manipulation is followed to measure the absorbance. […] The reactivity to proline was measured as a relative ratio of activities when sarcosine in the above reagent was replaced by L-proline at the same concentration. […]\n(§3) Various sarcosine oxidases obtained in Example 3B and Comparative Example 1 were evaluated.\n(§4) Action on proline was calculated from a relative ratio (%) of the enzyme activity using L-proline as the substrate to the enzyme activity suing sarcosine as the substrate in the above activity measurement method. […]"}, "[2]": {"substrate": "CNCC(=O)O", "assay": "Km of modified sarcosine oxidase SAOM7B", "settings": "other: SAOM7B, 37° C., pH 8.0", "protocol": "as §1, §2, §3, §4"}, "[3]": {"substrate": "CNCC(=O)O", "assay": "Km of modified sarcosine oxidase SAOM2B", "settings": "other: SAOM2B, V94G, 37° C., pH 8.0", "protocol": "as §1, §2, §3, §4"}, "[4]": {"substrate": "CNCC(=O)O", "assay": "Km of modified sarcosine oxidase SAOM6B", "settings": "other: SAOM6B, 37° C., pH 8.0", "protocol": "as §1, §2, §3, §4"}, "[5]": {"substrate": "CNCC(=O)O", "assay": "Km of modified sarcosine oxidase SAOM1B", "settings": "other: SAOM1B, K89R, 37° C., pH 8.0", "protocol": "as §1, §2, §3, §4"}, "[6]": {"substrate": "CNCC(=O)O", "assay": "Km of unmodified sarcosine oxidase (control, Comparative Example 1)", "settings": "other: unmodified (control), 37° C., pH 8.0", "protocol": "as §1, §2, §3, §4"}, "[7]": {"substrate": "CNCC(=O)O", "assay": "Km of modified sarcosine oxidase SAOM8B", "settings": "other: SAOM8B, 37° C., pH 8.0", "protocol": "as §1, §2, §3, §4"}},
  "data": [
    {"protein": "Arthrobacter sp. TE1826 sarcosine oxidase (SEQ ID NO:1) variant SAOM5B, V94G, E250Q, K89R (Arthrobacter sp. TE1826; E250Q/K89R/V94G) (protein) MSIKKDYDVIVVGAGSMGMAAGYYLSKQGVKTLLVDSFHPPHTNGSHHGDTRIIRHAYGEGREYVPFALRAQELWYELEKETHHKIFTRTGVLGFGPKGEAPFVAETMEAAKEHSLDVDLLEGSEINKRWPGVTVPENYNAIFEKNSGVLFSENCIRAYRELAEANGAKVLTYTPVEDFEIAEDFVKIQTAYGSFTASKLIVSMGAWNSKLLSKLNIEIPLQPYRQVVGFFECDEKKYSNTHGYPAFMVQVPTGIYYGFPSFGGCGLKIGYHTYGQKIDPDTINREFGIYPEDEGNIRKFLETYMPGATGELKSGDVCMYTKTPDEHFVIDLHPQFSNVAIAAGFSGHGFKFSSVVGETLSQLAVTGKTEHDISIFSINRPALKQKETI", "values": [
      {"measurement": "Km", "setting": "[1]", "value": 3.3, "unit": "mM mM"}
    ]},
    {"protein": "Arthrobacter sp. TE1826 sarcosine oxidase (SEQ ID NO:1) variant SAOM7B, K89R, V94G, M204A, S213P, E250Q (Arthrobacter sp. TE1826; E250Q/K89R/M204A/S213P/V94G) (protein) MSIKKDYDVIVVGAGSMGMAAGYYLSKQGVKTLLVDSFHPPHTNGSHHGDTRIIRHAYGEGREYVPFALRAQELWYELEKETHHKIFTRTGVLGFGPKGEAPFVAETMEAAKEHSLDVDLLEGSEINKRWPGVTVPENYNAIFEKNSGVLFSENCIRAYRELAEANGAKVLTYTPVEDFEIAEDFVKIQTAYGSFTASKLIVSAGAWNSKLLPKLNIEIPLQPYRQVVGFFECDEKKYSNTHGYPAFMVQVPTGIYYGFPSFGGCGLKIGYHTYGQKIDPDTINREFGIYPEDEGNIRKFLETYMPGATGELKSGDVCMYTKTPDEHFVIDLHPQFSNVAIAAGFSGHGFKFSSVVGETLSQLAVTGKTEHDISIFSINRPALKQKETI", "values": [
      {"measurement": "Km", "setting": "[2]", "value": 3.4, "unit": "mM mM"}
    ]},
    {"protein": "Arthrobacter sp. TE1826 sarcosine oxidase (SEQ ID NO:1) variant SAOM2B, V94G (Arthrobacter sp. TE1826; V94G) (protein) MSIKKDYDVIVVGAGSMGMAAGYYLSKQGVKTLLVDSFHPPHTNGSHHGDTRIIRHAYGEGREYVPFALRAQELWYELEKETHHKIFTKTGVLGFGPKGEAPFVAETMEAAKEHSLDVDLLEGSEINKRWPGVTVPENYNAIFEKNSGVLFSENCIRAYRELAEANGAKVLTYTPVEDFEIAEDFVKIQTAYGSFTASKLIVSMGAWNSKLLSKLNIEIPLQPYRQVVGFFECDEKKYSNTHGYPAFMVEVPTGIYYGFPSFGGCGLKIGYHTYGQKIDPDTINREFGIYPEDEGNIRKFLETYMPGATGELKSGDVCMYTKTPDEHFVIDLHPQFSNVAIAAGFSGHGFKFSSVVGETLSQLAVTGKTEHDISIFSINRPALKQKETI", "values": [
      {"measurement": "Km", "setting": "[3]", "value": 4.1, "unit": "mM mM"}
    ]},
    {"protein": "Arthrobacter sp. TE1826 sarcosine oxidase (SEQ ID NO:1) variant SAOM6B, K89R, V94G, S213P, E250Q (Arthrobacter sp. TE1826; E250Q/K89R/S213P/V94G) (protein) MSIKKDYDVIVVGAGSMGMAAGYYLSKQGVKTLLVDSFHPPHTNGSHHGDTRIIRHAYGEGREYVPFALRAQELWYELEKETHHKIFTRTGVLGFGPKGEAPFVAETMEAAKEHSLDVDLLEGSEINKRWPGVTVPENYNAIFEKNSGVLFSENCIRAYRELAEANGAKVLTYTPVEDFEIAEDFVKIQTAYGSFTASKLIVSMGAWNSKLLPKLNIEIPLQPYRQVVGFFECDEKKYSNTHGYPAFMVQVPTGIYYGFPSFGGCGLKIGYHTYGQKIDPDTINREFGIYPEDEGNIRKFLETYMPGATGELKSGDVCMYTKTPDEHFVIDLHPQFSNVAIAAGFSGHGFKFSSVVGETLSQLAVTGKTEHDISIFSINRPALKQKETI", "values": [
      {"measurement": "Km", "setting": "[4]", "value": 3.5, "unit": "mM mM"}
    ]},
    {"protein": "Arthrobacter sp. TE1826 sarcosine oxidase (SEQ ID NO:1) variant SAOM1B, K89R (Arthrobacter sp. TE1826; K89R) (protein) MSIKKDYDVIVVGAGSMGMAAGYYLSKQGVKTLLVDSFHPPHTNGSHHGDTRIIRHAYGEGREYVPFALRAQELWYELEKETHHKIFTRTGVLVFGPKGEAPFVAETMEAAKEHSLDVDLLEGSEINKRWPGVTVPENYNAIFEKNSGVLFSENCIRAYRELAEANGAKVLTYTPVEDFEIAEDFVKIQTAYGSFTASKLIVSMGAWNSKLLSKLNIEIPLQPYRQVVGFFECDEKKYSNTHGYPAFMVEVPTGIYYGFPSFGGCGLKIGYHTYGQKIDPDTINREFGIYPEDEGNIRKFLETYMPGATGELKSGDVCMYTKTPDEHFVIDLHPQFSNVAIAAGFSGHGFKFSSVVGETLSQLAVTGKTEHDISIFSINRPALKQKETI", "values": [
      {"measurement": "Km", "setting": "[5]", "value": 3.4, "unit": "mM mM"}
    ]},
    {"protein": "Arthrobacter sp. TE1826 sarcosine oxidase, wild type (unmodified), SEQ ID NO:1 (Arthrobacter sp. TE1826) (protein) MSIKKDYDVIVVGAGSMGMAAGYYLSKQGVKTLLVDSFHPPHTNGSHHGDTRIIRHAYGEGREYVPFALRAQELWYELEKETHHKIFTKTGVLVFGPKGEAPFVAETMEAAKEHSLDVDLLEGSEINKRWPGVTVPENYNAIFEKNSGVLFSENCIRAYRELAEANGAKVLTYTPVEDFEIAEDFVKIQTAYGSFTASKLIVSMGAWNSKLLSKLNIEIPLQPYRQVVGFFECDEKKYSNTHGYPAFMVEVPTGIYYGFPSFGGCGLKIGYHTYGQKIDPDTINREFGIYPEDEGNIRKFLETYMPGATGELKSGDVCMYTKTPDEHFVIDLHPQFSNVAIAAGFSGHGFKFSSVVGETLSQLAVTGKTEHDISIFSINRPALKQKETI", "values": [
      {"measurement": "Km", "setting": "[6]", "value": 3.4, "unit": "mM mM"}
    ]},
    {"protein": "Arthrobacter sp. TE1826 sarcosine oxidase (SEQ ID NO:1) variant SAOM8B, K89R, V94G, N166K, M204A, S213P, E250Q (Arthrobacter sp. TE1826; … (protein) MSIKKDYDVIVVGAGSMGMAAGYYLSKQGVKTLLVDSFHPPHTNGSHHGDTRIIRHAYGEGREYVPFALRAQELWYELEKETHHKIFTRTGVLGFGPKGEAPFVAETMEAAKEHSLDVDLLEGSEINKRWPGVTVPENYNAIFEKNSGVLFSENCIRAYRELAEAKGAKVLTYTPVEDFEIAEDFVKIQTAYGSFTASKLIVSAGAWNSKLLPKLNIEIPLQPYRQVVGFFECDEKKYSNTHGYPAFMVQVPTGIYYGFPSFGGCGLKIGYHTYGQKIDPDTINREFGIYPEDEGNIRKFLETYMPGATGELKSGDVCMYTKTPDEHFVIDLHPQFSNVAIAAGFSGHGFKFSSVVGETLSQLAVTGKTEHDISIFSINRPALKQKETI", "values": [
      {"measurement": "Km", "setting": "[7]", "value": 3.4, "unit": "mM mM"}
    ]}
  ]
}
